Data set [1] concerns the target human AURKA_(123–403), kinase domain of Aurora kinase A, wild type (human) (UniProt O14965). Put plainly: ITC.
The data set “SEC-MALS” deals with the molecule itself. Put plainly: SEC-MALS.
Data set [2] concerns the target T1, AURKA region (AURKA_(123–403)C290,393A) of CEP192-AURKA_(chimera) (human, UniProt O14965 123-403, C290,393A | C290,393A).
T1 sequence: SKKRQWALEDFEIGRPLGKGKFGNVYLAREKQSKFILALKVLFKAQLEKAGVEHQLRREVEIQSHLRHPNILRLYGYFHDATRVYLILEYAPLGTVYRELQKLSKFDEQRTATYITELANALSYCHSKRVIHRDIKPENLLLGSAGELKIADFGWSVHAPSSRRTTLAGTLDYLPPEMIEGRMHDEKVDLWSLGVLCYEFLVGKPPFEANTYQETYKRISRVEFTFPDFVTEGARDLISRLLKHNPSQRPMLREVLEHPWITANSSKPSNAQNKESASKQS
Nature of the data set: crystal structure.

Another data set deals with T2, AURKA_(123–403) W128A (human, UniProt O14965 123-403, W128A).
T2 sequence: T1 sequence with W6A, A168C, A271C
Nature of the data set: fluorescence polarisation.

Results on four molecules are retold here after publication PMC10121170 (Science Advances, 2023).

Numbering of substitutions follows the chain as printed. No end group written: not given here.

In data set [1], “N-terminal MBP-tagged AURKA-BD of human CEP192 residues 440 to 631 (from UniProt Q8TEP8 440-631) (domain or fragment)” gave a Kd of 1200 nM and a stoichiometry N of 1.

B1: CEP192-AURKA_(chimera): CEP192_(506–527) fused to AURKA_(123–403)C290,393A without linker residues (other)
chain: EDFRSGSEAFDLIAQDEEEFNKSKKRQWALEDFEIGRPLGKGKFGNVYLAREKQSKFILALKVLFKAQLEKAGVEHQLRREVEIQSHLRHPNILRLYGYFHDATRVYLILEYAPLGTVYRELQKLSKFDEQRTATYITELANALSYCHSKRVIHRDIKPENLLLGSAGELKIADFGWSVHAPSSRRTTLAGTLDYLPPEMIEGRMHDEKVDLWSLGVLCYEFLVGKPPFEANTYQETYKRISRVEFTFPDFVTEGARDLISRLLKHNPSQRPMLREVLEHPWITANSSKPSNAQNKESASKQS
B1: in “SEC-MALS”, the “stoichiometry N” value worked out at 3. With EDFRSGSEAFDLIAQDEEEFNK (domain or fragment) [CEP192 region (residues 506–527) of CEP192-AURKA_(chimera)], the binding result in data set [2] is reported as “binds”. As for EDFRSGSEAFDLIAQDEEEFNKEHQFIQEEN (also: FITC label, position not given here) [FITC-labeled CEP192_(506–536) peptide], the binding result with AURKA_(123–403) W128A is listed as “binds”.
